In patent publication US20200079833A1 (AstraZeneca / MedImmune, published 2020):
Starred links: 1 amine or outer side, 2 acyl side, 3 side chain; linkers in the order of their positions; H or OH if unused. Non-standard residues stand in square brackets, D forms with d. Groups on a side chain read outwards from the residue. Primed or numbered codes have the meaning given here. No end group written: not given here. *: point of attachment. γGlu = O=C(O)[C@H](CCC(=O)[*:2])N[*:1]; Stearoyl = CCCCCCCCCCCCCCCCCC(=O)*; Palmitoyl = CCCCCCCCCCCCCCCC(=O)*; αMeF = C[C@](N)(Cc1ccccc1)C(=O)O; αMeK = C[C@](N)(CCCCN)C(=O)O; αMeS = C[C@](N)(CO)C(=O)O; PEG2′ = not defined here; Aib = CC(C)(N)C(=O)O

T1: GLP-1R (INS1e assay) (UniProt P32301 22-463, limits assumed)
T1 sequence (looked up): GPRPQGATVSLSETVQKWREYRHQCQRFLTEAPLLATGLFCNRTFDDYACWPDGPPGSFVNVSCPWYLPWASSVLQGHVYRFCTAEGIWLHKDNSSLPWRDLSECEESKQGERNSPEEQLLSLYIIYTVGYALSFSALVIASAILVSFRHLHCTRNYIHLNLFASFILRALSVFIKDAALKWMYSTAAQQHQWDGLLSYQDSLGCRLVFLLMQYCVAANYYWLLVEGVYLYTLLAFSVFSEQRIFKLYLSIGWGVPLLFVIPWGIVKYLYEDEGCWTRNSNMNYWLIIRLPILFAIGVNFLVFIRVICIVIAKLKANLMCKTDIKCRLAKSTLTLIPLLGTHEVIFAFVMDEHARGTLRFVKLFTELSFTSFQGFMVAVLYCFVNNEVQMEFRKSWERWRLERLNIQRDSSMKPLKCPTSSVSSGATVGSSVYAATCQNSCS


The binders below were run against T1, GLP-1R (INS1e assay) (assay: cell-based or functional assay).

Row | INS1e assay EC50 GLP-1 R n1 [nM] | INS1e assay EC50 GLP-1 R n2 [nM] | INS1e assay EC50 Mean pM GLP-1R [pM] | Binder
1 | 8.35 | 4.32 | 6340 | H[Aib]EGS[αMeF]TSDV[αMeS]S[αMeF]LEGEAAK([PEG2′-PEG2′-γGlu-Palmitoyl])E[αMeF]IA[αMeF]VV[αMeK]GG-NH2 [SEQ ID NO 109]
2 | 4.22 | 2.89 | 3560 | H[Aib]EGS[αMeF]TSDV[αMeS]S[αMeF]LEGEAA[αMeK]E[αMeF]IA[αMeF]VK([PEG2′-PEG2′-γGlu-Stearoyl])[αMeK]GG-NH2 [SEQ ID NO 102]
3 | 0.501 | 1.11 | 806 | H[Aib]EGS[αMeF]TSDV[αMeS]S[αMeF]LEGEK([PEG2′-PEG2′-γGlu-Stearoyl])A[αMeK]E[αMeF]IA[αMeF]VV[αMeK]GG-NH2 [SEQ ID NO 111]
4 | 0.593 | 0.494 | 544 | H[Aib]EGS[αMeF]TSDV[αMeS]S[αMeF]K([PEG2′-PEG2′-γGlu-Stearoyl])EGEAA[αMeK]E[αMeF]IA[αMeF]VV[αMeK]GG-NH2 [SEQ ID NO 115]
5 | 11 | 5.88 | 8440 | H[Aib]EGS[αMeF]TSDV[αMeS]S[αMeF]LEGEAA[αMeK]E[αMeF]IA[αMeF]VV[αMeK]GK([PEG2′-PEG2′-γGlu-Stearoyl])-NH2 [SEQ ID NO 99]
6 | 0.0434 | 0.0586 | 51 | H[Aib]EGS[αMeF]TSDK([γGlu-Palmitoyl])[αMeS]S[αMeF]LEGEAA[αMeK]E[αMeF]IA[αMeF]VV[αMeK]GG-NH2 (N-terminus assumed; SMILES CCCCCCCCCCCCCCCC(=O)N[C@@H](CCC(=O)NCCCC[C@H](NC(=O)[C@H](CC(=O)O)NC(=O)[C@H](CO)NC(=O)[C@@H](NC(=O)[C@](C)(Cc1ccccc1)NC(=O)[C@H](CO)NC(=O)CNC(=O)[C@H](CCC(=O)O)NC(=O)C(C)(C)NC(=O)[C@@H](N)Cc1c[nH]cn1)[C@@H](C)O)C(=O)N[C@@](C)(CO)C(=O)N[C@@H](CO)C(=O)N[C@@](C)(Cc1ccccc1)C(=O)N[C@@H](CC(C)C)C(=O)N[C@@H](CCC(=O)O)C(=O)NCC(=O)N[C@@H](CCC(=O)O)C(=O)N[C@@H](C)C(=O)N[C@@H](C)C(=O)N[C@@](C)(CCCCN)C(=O)N[C@@H](CCC(=O)O)C(=O)N[C@@](C)(Cc1ccccc1)C(=O)N[C@H](C(=O)N[C@@H](C)C(=O)N[C@@](C)(Cc1ccccc1)C(=O)N[C@H](C(=O)N[C@H](C(=O)N[C@@](C)(CCCCN)C(=O)NCC(=O)NCC(N)=O)C(C)C)C(C)C)[C@@H](C)CC)C(=O)O) [SEQ ID NO 90]
7 | 1.93 | 3.5 | 2720 | H[Aib]EGS[αMeF]TSK([γGlu-Palmitoyl])V[αMeS]S[αMeF]LEGEAA[αMeK]E[αMeF]IA[αMeF]VV[αMeK]GG-NH2 (N-terminus assumed; SMILES CCCCCCCCCCCCCCCC(=O)N[C@@H](CCC(=O)NCCCC[C@H](NC(=O)[C@H](CO)NC(=O)[C@@H](NC(=O)[C@](C)(Cc1ccccc1)NC(=O)[C@H](CO)NC(=O)CNC(=O)[C@H](CCC(=O)O)NC(=O)C(C)(C)NC(=O)[C@@H](N)Cc1c[nH]cn1)[C@@H](C)O)C(=O)N[C@H](C(=O)N[C@@](C)(CO)C(=O)N[C@@H](CO)C(=O)N[C@@](C)(Cc1ccccc1)C(=O)N[C@@H](CC(C)C)C(=O)N[C@@H](CCC(=O)O)C(=O)NCC(=O)N[C@@H](CCC(=O)O)C(=O)N[C@@H](C)C(=O)N[C@@H](C)C(=O)N[C@@](C)(CCCCN)C(=O)N[C@@H](CCC(=O)O)C(=O)N[C@@](C)(Cc1ccccc1)C(=O)N[C@H](C(=O)N[C@@H](C)C(=O)N[C@@](C)(Cc1ccccc1)C(=O)N[C@H](C(=O)N[C@H](C(=O)N[C@@](C)(CCCCN)C(=O)NCC(=O)NCC(N)=O)C(C)C)C(C)C)[C@@H](C)CC)C(C)C)C(=O)O) [SEQ ID NO 91]
8 | 1.61 | 0.61 | 1110 | H[Aib]EGS[αMeF]TSDV[αMeS]SK([PEG2′-PEG2′-γGlu-Stearoyl])LEGEAA[αMeK]E[αMeF]IA[αMeF]VV[αMeK]GG-NH2 [SEQ ID NO 116]
9 | 0.294 | 0.476 | 385 | H[Aib]EGS[αMeF]TSDV[αMeS]S[αMeF]LEGK([PEG2′-PEG2′-γGlu-Stearoyl])AA[αMeK]E[αMeF]IA[αMeF]VV[αMeK]GG-NH2 [SEQ ID NO 112]
10 | 0.22 | 1.72 | 970 | H[Aib]EGS[αMeF]TSDV[αMeS]S[αMeF]LEGEAA[αMeK]E[αMeF]IK([PEG2′-PEG2′-γGlu-Stearoyl])[αMeF]VV[αMeK]GG-NH2 [SEQ ID NO 105]
11 | 31.6 | 23.1 | 27400 | H[Aib]EGS[αMeF]TSDV[αMeS]S[αMeF]LEGEAK([PEG2′-PEG2′-γGlu-Stearoyl])[αMeK]E[αMeF]IA[αMeF]VV[αMeK]GG-NH2 [SEQ ID NO 110]
12 | 0.428 | 0.59 | 509 | H[Aib]EGS[αMeF]TSDV[αMeS]S[αMeF]LEGEAA[αMeK]E[αMeF]IA[αMeF]K([PEG2′-PEG2′-γGlu-Stearoyl])V[αMeK]GG-NH2 [SEQ ID NO 103]
13 | 0.233 | 1.41 | 822 | H[Aib]EGS[αMeF]TSDV[αMeS]S[αMeF]LEGEAA[αMeK]E[αMeF]IA[αMeF]VV[αMeK]K([PEG2′-PEG2′-γGlu-Stearoyl])G-NH2 [SEQ ID NO 100]
14 | 0.391 | 0.27 | 331 | H[Aib]EGS[αMeF]TSDV[αMeS]S[αMeF]LEGEAA[αMeK]E[αMeF]IAK([PEG2′-PEG2′-γGlu-Stearoyl])VV[αMeK]GG-NH2 [SEQ ID NO 104]
15 | 0.277 | 0.415 | 346 | HXEGSFTSDVSKFLEGEAAKEFIAFVVKGG (Aib2; α-MeF6; α-MeS11; K12(ε-γE-Palmitoyl); α-MeF13; α-MeK20; α-MeF22; α-MeF25; α-MeK28; C-terminal amide) [SEQ ID NO 88]
16 | 1.47 | 6.65 | 4060 | H[Aib]EGS[αMeF]TSDV[αMeS]S[αMeF]LEGEAA[αMeK]E[αMeF]IA[αMeF]VVK([PEG2′-PEG2′-γGlu-Stearoyl])GG-NH2 [SEQ ID NO 101]
17 | 0.0436 | 0.0622 | 53 | H[Aib]EGS[αMeF]TSDV[αMeS]SK([γGlu-Palmitoyl])LEGEAA[αMeK]E[αMeF]IA[αMeF]VV[αMeK]GG-NH2 (N-terminus assumed; SMILES CCCCCCCCCCCCCCCC(=O)N[C@@H](CCC(=O)NCCCC[C@H](NC(=O)[C@H](CO)NC(=O)[C@](C)(CO)NC(=O)[C@@H](NC(=O)[C@H](CC(=O)O)NC(=O)[C@H](CO)NC(=O)[C@@H](NC(=O)[C@](C)(Cc1ccccc1)NC(=O)[C@H](CO)NC(=O)CNC(=O)[C@H](CCC(=O)O)NC(=O)C(C)(C)NC(=O)[C@@H](N)Cc1c[nH]cn1)[C@@H](C)O)C(C)C)C(=O)N[C@@H](CC(C)C)C(=O)N[C@@H](CCC(=O)O)C(=O)NCC(=O)N[C@@H](CCC(=O)O)C(=O)N[C@@H](C)C(=O)N[C@@H](C)C(=O)N[C@@](C)(CCCCN)C(=O)N[C@@H](CCC(=O)O)C(=O)N[C@@](C)(Cc1ccccc1)C(=O)N[C@H](C(=O)N[C@@H](C)C(=O)N[C@@](C)(Cc1ccccc1)C(=O)N[C@H](C(=O)N[C@H](C(=O)N[C@@](C)(CCCCN)C(=O)NCC(=O)NCC(N)=O)C(C)C)C(C)C)[C@@H](C)CC)C(=O)O) [SEQ ID NO 87]
18 | 5.23 | 11.7 | 8460 | H[Aib]EGS[αMeF]TSDV[αMeS]S[αMeF]LEGEAA[αMeK]EK([PEG2′-PEG2′-γGlu-Stearoyl])IA[αMeF]VV[αMeK]GG-NH2 [SEQ ID NO 107]
19 | 0.823 | 1.26 | 1040 | H[Aib]EGS[αMeF]TSDV[αMeS]S[αMeF]LEK([PEG2′-PEG2′-γGlu-Stearoyl])EAA[αMeK]E[αMeF]IA[αMeF]VV[αMeK]GG-NH2 [SEQ ID NO 113]
20 | 0.038 | 0.458 | 248 | H[Aib]EGS[αMeF]TSDV[αMeS]S[αMeF]LEGEAA[αMeK]K([PEG2′-PEG2′-γGlu-Stearoyl])[αMeF]IA[αMeF]VV[αMeK]GG-NH2 [SEQ ID NO 108]
